The record followed here is paper PMC3176292, “Mutations in Protein-Binding Hot-Spots on the Hub Protein Smad3 Differentially Affect Its Protein Interactions and Smad3-Regulated Gene Expression” (PLoS ONE, 2011).

Holding throughout (assay): co-IP; LUMIER: Renilla luciferase-Smad3 and Flag-tagged partner co-expressed with constitutively active Alk5 in HEK-293; Flag protein captured from cleared lysate (TNE: 10 mM Tris-HCl pH 7.8, 150 mM NaCl, 1 mM EDTA, 1% Igepal CA-630) on anti-Flag 96-well plates, 2 h at 4 °C; co-precipitated Renilla luciferase activity, TrxGA background subtracted, percent of wild-type Smad3
What all share (conditions): partners not purified

Assay [1] addresses T1, SARA Smad-binding domain (amino acids 665–721) on the 3xFlag-thioredoxin scaffold (UniProt O95405 767-823).
T1 construct: SARA, amino acids 665–721; cloned into the unique RsrII site of pCI-3xFLAG-Trx; also called SARA aa665–721; TrxSARA; source: HEK-293, transfected, in lysate
T1 sequence (looked up): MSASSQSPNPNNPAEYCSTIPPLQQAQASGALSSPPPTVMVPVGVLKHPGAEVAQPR

The target in assay [2] is T2, Smurf2 Smad-binding domain (amino acids 252–330) on the Flag-thioredoxin scaffold (UniProt Q9HAU4 252-330).
T2 construct: Smurf2, amino acids 252–330; also called Smurf2 aa252–330; TrxSmurf2; source: HEK-293, transfected, in lysate
T2 sequence (Q9HAU4 252-330): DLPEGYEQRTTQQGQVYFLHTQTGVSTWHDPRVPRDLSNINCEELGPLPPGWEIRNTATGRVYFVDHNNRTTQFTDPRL

Assay [3] addresses T3, Flag-SkiW274E, full length (UniProt P12755 1-728, W274E).
T3 construct: plasmid pCMV5b-Flag-SkiW274E (from K. Luo); also called SkiW274E FL; SKI274E; source: HEK-293, transfected, in lysate
T3 sequence (looked up): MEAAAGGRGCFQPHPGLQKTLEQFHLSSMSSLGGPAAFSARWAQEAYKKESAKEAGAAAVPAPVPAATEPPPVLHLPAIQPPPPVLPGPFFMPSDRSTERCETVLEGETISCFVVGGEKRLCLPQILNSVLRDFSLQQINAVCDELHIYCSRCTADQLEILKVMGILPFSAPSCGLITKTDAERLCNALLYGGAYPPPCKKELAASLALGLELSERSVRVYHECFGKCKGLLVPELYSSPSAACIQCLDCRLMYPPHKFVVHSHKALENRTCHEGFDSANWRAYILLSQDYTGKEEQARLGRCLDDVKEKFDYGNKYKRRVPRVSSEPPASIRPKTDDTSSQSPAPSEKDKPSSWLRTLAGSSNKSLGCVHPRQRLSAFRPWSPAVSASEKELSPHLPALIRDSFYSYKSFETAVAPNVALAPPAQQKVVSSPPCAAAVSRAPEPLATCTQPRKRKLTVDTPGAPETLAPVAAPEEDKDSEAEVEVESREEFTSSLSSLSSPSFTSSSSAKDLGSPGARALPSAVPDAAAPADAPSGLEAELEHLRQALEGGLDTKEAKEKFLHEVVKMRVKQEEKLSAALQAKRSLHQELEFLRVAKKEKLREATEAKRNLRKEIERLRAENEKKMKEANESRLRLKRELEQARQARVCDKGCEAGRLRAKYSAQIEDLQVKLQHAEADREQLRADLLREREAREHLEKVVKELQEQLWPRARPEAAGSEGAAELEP

Assay [4] has as its target T4, Flag-Smad4, full length (UniProt Q13485 1-552).
T4 construct: Smad4; plasmid pCMV5-Flag-Smad4 (from J. Massagué); also called Smad4 FL; source: HEK-293, transfected, in lysate
T4 sequence (looked up): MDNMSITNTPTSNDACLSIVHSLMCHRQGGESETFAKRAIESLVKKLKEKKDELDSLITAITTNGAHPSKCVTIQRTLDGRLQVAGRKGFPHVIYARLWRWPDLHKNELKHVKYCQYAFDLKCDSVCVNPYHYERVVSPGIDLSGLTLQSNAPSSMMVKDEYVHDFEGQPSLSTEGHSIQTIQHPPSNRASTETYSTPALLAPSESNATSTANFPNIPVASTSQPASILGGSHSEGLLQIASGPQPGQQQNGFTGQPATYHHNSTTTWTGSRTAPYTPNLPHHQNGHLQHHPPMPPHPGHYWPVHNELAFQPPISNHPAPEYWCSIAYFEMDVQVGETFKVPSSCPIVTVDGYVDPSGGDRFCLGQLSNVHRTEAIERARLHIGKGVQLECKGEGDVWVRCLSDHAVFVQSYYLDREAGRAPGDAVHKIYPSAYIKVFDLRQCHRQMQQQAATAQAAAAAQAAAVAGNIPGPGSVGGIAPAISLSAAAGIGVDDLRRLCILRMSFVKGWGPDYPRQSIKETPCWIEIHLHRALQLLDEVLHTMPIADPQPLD

B1: Renilla luciferase-Smad3 Y226A (natural protein, UniProt P84022 1-425, looked up)
chain: MSSILPFTPPIVKRLLGWKKGEQNGQEEKWCEKAVKSLVKKLKKTGQLDELEKAITTQNVNTKCITIPRSLDGRLQVSHRKGLPHVIYCRLWRWPDLHSHHELRAMELCEFAFNMKKDEVCVNPYHYQRVETPVLPPVLVPRHTEIPAEFPPLDDYSHSIPENTNFPAGIEPQSNIPETPPPGYLSEDGETSDHQMNHSMDAGSPNLSPNPMSPAHNNLDLQPVTACEPAFWCSISYYELNQRVGETFHASQPSMTVDGFTDPSNSERFCLGLLSNVNRNAAVELTRRHIGRGVRLYYIGGEVFAECLSDSAIFVQSPNCNQRYGWHPATVCKIPPGCNLKIFNNQEFAALLAQSVNQGFEAVYQLTRMCTIRMSFVKGWGAEYRRQTVTSTPCWIELHLNGPLQWLDKVLTQMGSPSIRCSSVS
notes: Smad3; source: HEK-293, transfected together with constitutively active Alk5, in lysate
Turning to B1, the “percent binding relative to wild-type Smad3” value was determined as 3% in assay [1], 365% in assay [2], 89% in assay [3] and 110% in assay [4].

B2: Renilla luciferase-Smad3 Y298A (natural protein, UniProt P84022 1-425, looked up)
chain: MSSILPFTPPIVKRLLGWKKGEQNGQEEKWCEKAVKSLVKKLKKTGQLDELEKAITTQNVNTKCITIPRSLDGRLQVSHRKGLPHVIYCRLWRWPDLHSHHELRAMELCEFAFNMKKDEVCVNPYHYQRVETPVLPPVLVPRHTEIPAEFPPLDDYSHSIPENTNFPAGIEPQSNIPETPPPGYLSEDGETSDHQMNHSMDAGSPNLSPNPMSPAHNNLDLQPVTYCEPAFWCSISYYELNQRVGETFHASQPSMTVDGFTDPSNSERFCLGLLSNVNRNAAVELTRRHIGRGVRLYAIGGEVFAECLSDSAIFVQSPNCNQRYGWHPATVCKIPPGCNLKIFNNQEFAALLAQSVNQGFEAVYQLTRMCTIRMSFVKGWGAEYRRQTVTSTPCWIELHLNGPLQWLDKVLTQMGSPSIRCSSVS
notes: as for B1
For B2, the “percent binding relative to wild-type Smad3” value in assay [1] worked out at 73%; in assay [2], 144%; in assay [3], 121%; in assay [4], 120%.
